US20260184748A1 (University of Pennsylvania, published 2026)
Where no end group is shown, it is not given here.

How the values were obtained:
Test in all cases: cell-based or functional assay
ADRA1B = target: T1, ADRA1B (UniProt P35368 1-520)
T1 sequence (looked up): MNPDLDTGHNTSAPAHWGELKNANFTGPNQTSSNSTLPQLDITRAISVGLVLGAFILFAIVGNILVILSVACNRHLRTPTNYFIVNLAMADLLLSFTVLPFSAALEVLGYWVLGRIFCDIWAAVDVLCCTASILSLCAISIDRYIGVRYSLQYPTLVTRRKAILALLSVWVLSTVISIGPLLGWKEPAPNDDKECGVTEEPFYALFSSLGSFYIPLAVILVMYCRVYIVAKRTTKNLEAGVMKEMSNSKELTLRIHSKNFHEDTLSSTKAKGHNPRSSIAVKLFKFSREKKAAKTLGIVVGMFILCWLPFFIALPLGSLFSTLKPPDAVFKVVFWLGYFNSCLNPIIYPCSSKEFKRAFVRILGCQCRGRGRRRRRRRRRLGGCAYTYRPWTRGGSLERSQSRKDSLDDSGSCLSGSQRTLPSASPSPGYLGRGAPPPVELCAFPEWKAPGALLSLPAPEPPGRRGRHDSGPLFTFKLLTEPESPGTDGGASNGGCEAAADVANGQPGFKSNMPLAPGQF

SCTR = SCTR (UniProt P47872 23-440)
Sequence of SCTR (P47872 23-440 limits assumed): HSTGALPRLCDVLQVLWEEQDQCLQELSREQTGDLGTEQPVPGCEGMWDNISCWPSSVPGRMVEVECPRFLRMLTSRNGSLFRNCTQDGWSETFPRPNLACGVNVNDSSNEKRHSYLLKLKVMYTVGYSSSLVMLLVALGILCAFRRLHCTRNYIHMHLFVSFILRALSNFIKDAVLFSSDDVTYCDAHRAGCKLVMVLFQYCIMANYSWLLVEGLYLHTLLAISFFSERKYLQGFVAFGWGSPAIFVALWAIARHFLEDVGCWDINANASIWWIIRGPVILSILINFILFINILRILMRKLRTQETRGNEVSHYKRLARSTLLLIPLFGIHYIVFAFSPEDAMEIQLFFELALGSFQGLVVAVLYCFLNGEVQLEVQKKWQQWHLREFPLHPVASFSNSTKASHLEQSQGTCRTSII

NPFFR1 = NPFFR1 (UniProt Q9GZQ6 1-430)
Sequence of NPFFR1 (Q9GZQ6 whole entry): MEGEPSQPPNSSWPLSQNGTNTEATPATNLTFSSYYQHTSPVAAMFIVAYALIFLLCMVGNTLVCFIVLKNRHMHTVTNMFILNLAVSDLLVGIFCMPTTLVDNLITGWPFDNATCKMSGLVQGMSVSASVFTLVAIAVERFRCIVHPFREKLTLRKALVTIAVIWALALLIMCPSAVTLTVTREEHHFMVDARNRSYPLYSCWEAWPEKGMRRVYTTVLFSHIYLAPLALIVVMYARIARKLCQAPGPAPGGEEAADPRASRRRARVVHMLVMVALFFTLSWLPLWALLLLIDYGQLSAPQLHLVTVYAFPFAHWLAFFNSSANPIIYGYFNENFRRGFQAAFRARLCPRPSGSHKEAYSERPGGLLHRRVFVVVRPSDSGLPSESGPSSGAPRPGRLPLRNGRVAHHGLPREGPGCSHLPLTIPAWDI

HRH1 = HRH1 (UniProt P35367 1-487)
Sequence of HRH1 (P35367 whole entry): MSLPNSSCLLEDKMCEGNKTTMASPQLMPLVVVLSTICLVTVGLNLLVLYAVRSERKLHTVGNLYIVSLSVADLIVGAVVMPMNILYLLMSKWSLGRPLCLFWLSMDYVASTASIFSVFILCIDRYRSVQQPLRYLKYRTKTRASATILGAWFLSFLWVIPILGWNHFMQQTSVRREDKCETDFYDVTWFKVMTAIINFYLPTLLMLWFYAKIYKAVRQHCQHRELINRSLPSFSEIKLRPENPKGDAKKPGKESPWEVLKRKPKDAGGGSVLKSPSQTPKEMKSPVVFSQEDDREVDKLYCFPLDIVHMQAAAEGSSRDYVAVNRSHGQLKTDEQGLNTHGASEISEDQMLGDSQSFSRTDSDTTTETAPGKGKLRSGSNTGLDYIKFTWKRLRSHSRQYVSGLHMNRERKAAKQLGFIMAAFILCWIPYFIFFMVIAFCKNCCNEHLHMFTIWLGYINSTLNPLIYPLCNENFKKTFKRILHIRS

HTR1B = HTR1B (UniProt P28222 1-390)
Sequence of HTR1B (P28222 whole entry): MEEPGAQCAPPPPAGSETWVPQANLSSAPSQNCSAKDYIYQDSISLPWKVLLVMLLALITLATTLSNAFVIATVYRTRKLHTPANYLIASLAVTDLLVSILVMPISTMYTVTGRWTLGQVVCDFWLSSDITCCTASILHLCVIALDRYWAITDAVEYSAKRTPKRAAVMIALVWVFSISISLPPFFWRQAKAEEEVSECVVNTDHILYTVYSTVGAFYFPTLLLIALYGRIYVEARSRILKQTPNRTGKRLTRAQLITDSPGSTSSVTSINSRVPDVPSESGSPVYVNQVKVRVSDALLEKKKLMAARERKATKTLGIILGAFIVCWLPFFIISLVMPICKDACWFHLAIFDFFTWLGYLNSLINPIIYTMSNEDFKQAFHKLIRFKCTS

GLP2R = target: T2, GLP2R (UniProt O95838 1-553, limits assumed)
T2 sequence (looked up): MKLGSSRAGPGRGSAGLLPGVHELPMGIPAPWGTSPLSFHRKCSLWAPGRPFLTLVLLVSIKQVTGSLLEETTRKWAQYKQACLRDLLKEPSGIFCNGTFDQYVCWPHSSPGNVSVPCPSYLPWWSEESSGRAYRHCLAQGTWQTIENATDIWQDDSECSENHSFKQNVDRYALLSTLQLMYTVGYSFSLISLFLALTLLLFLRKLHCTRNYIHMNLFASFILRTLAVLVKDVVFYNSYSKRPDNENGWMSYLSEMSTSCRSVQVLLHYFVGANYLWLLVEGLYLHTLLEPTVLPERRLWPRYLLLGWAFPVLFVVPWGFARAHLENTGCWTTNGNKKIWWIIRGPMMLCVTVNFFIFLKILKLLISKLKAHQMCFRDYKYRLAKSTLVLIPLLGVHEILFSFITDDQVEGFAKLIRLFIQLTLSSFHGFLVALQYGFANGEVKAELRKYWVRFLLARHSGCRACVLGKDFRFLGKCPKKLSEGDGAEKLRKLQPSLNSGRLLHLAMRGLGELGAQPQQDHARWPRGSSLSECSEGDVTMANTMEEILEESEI

PTGER3 = target: T3, PTGER3 (UniProt P43115 1-390, limits assumed)
T3 sequence (looked up): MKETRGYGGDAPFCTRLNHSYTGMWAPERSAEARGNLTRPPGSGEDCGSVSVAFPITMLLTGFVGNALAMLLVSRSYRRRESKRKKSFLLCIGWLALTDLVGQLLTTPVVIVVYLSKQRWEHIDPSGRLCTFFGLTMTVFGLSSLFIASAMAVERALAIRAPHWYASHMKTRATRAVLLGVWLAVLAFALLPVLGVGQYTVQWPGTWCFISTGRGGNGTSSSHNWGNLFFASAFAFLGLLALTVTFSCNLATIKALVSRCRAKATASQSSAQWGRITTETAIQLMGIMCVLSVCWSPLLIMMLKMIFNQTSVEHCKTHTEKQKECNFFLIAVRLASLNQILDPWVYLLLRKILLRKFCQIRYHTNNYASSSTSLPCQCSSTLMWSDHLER

GHSR = GHSR (UniProt Q92847 1-366)
Sequence of GHSR (Q92847 whole entry): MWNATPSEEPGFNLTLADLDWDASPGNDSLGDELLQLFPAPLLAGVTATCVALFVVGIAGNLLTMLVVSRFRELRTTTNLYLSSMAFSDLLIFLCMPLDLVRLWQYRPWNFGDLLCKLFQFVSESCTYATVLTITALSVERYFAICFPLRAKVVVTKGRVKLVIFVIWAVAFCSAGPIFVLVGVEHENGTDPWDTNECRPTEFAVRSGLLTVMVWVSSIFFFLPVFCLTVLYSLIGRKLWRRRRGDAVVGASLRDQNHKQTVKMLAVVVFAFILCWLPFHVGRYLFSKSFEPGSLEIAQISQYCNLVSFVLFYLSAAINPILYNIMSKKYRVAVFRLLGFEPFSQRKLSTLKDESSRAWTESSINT

TACR1 = TACR1 (UniProt P25103 1-407)
Sequence of TACR1 (P25103 whole entry): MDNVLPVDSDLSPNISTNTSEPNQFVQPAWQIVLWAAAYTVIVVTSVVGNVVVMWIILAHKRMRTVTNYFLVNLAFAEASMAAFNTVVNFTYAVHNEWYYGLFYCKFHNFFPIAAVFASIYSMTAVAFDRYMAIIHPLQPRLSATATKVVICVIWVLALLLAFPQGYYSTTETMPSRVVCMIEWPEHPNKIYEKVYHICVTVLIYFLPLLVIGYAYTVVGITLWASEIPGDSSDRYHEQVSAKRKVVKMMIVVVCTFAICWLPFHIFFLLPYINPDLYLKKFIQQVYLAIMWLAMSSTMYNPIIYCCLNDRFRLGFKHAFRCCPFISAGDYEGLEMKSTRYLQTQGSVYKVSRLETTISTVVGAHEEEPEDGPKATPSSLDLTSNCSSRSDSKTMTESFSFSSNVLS

CCR3 = target: T4, CCR3 (UniProt P51677 1-355)
T4 sequence (looked up): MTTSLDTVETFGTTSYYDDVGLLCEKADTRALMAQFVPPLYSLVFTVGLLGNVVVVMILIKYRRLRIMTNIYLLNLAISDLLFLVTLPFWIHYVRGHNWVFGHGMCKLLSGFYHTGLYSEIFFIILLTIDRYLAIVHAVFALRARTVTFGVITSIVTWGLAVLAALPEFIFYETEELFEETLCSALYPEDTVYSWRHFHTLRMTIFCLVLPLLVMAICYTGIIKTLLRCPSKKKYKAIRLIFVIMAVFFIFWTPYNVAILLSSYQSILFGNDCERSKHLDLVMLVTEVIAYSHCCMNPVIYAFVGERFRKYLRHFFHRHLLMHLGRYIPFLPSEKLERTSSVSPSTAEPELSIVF

CCR8 = CCR8 (UniProt P51685 1-355)
HCRTR2 = target: T5, HCRTR2 (UniProt O43614 1-444)
T5 sequence (looked up): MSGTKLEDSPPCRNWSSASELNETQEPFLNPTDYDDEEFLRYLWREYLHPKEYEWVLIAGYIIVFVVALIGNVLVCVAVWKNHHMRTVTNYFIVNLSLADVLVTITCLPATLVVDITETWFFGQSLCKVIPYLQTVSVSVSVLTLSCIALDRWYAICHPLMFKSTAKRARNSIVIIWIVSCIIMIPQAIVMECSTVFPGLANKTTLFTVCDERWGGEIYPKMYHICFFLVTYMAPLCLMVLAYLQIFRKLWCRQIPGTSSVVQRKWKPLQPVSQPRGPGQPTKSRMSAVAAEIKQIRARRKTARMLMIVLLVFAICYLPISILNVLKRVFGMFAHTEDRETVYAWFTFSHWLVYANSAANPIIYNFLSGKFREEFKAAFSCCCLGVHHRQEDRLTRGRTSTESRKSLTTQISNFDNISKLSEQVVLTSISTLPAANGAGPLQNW

Binder: QATVGDVNTDRPGLLDLK (also: synthesised on Rink amide resin, C-terminal amide not given here outright) [octadecaneuropeptide (ODN)]
- % Activity, arrestin, antagonist mode, 2.5 uM (ADRA1B): 0.1%
- % Activity, arrestin, antagonist mode, 2.5 uM (SCTR): 7.7%
- % Activity, arrestin, antagonist mode, 2.5 uM (NPFFR1): -4.2%
- % Activity, arrestin, antagonist mode, 2.5 uM (HRH1): -38.5%
- % Activity, arrestin, antagonist mode, 2.5 uM (HTR1B): -11.9%
- % Activity, arrestin, antagonist mode, 2.5 uM (GLP2R): -15.4%
- % Activity, arrestin, antagonist mode, 2.5 uM (PTGER3): -10%
- % Activity, arrestin, antagonist mode, 2.5 uM (GHSR): -7.4%
- % Activity, arrestin, antagonist mode, 2.5 uM (TACR1): -17.6%
- % Activity, arrestin, antagonist mode, 2.5 uM (CCR3): -5.8%
- % Activity, arrestin, antagonist mode, 2.5 uM (CCR8): -17%
- % Activity, arrestin, antagonist mode, 2.5 uM (HCRTR2): -2.7%
